These results are taken from US20240116985A1 (published 2024).

A word on the EC50: it is the concentration that produces a half-maximal response. Low values mean greater potency, high ones weaker potency.

This assay has as its target T1, full-length beta-Catenin (Uniprot ID P35222) (Homo sapiens (Human), UniProt P35222 2-781).
T1 construct: Used full-length in both the FP and the AlphaScreen assay; also called B-Catenin; bCat
T1 sequence: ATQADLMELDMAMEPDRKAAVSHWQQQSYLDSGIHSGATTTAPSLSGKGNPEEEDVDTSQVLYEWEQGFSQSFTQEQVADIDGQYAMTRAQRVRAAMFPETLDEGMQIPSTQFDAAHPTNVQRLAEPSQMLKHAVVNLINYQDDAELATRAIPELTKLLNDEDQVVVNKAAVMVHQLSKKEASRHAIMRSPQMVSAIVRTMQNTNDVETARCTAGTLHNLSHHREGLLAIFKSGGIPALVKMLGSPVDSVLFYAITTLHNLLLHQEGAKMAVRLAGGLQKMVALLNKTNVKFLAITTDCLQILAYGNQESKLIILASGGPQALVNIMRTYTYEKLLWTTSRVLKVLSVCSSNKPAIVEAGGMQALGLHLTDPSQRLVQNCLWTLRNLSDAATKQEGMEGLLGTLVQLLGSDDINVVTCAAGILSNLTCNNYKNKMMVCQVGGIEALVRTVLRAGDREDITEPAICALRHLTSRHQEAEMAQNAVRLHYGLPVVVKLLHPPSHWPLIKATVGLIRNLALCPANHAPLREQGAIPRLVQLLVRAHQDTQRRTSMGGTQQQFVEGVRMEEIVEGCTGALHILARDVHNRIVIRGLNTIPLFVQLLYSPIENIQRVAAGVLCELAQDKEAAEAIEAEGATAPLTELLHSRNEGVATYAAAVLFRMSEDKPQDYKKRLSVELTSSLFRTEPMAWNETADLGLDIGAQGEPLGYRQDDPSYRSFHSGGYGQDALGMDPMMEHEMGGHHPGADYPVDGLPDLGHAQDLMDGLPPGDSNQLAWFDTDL
As to the kind of experiment: AlphaScreen competition; full-length beta-catenin, biotin-TCF4(10-53) probe. The method, then: Equal volume of the titrated peptide was added to the plate and incubated for 15 minutes at 20° C. Then 4 uL of donor and 4 uL acceptor beads at 10 ug/mL were added to the plate, for a 16 uL reaction pool and protected from light for 60 minutes at 20° C. prior to read. Reads were performed on a CLARIOstar plate reader (BMG Labtech) in duplicate, and data were fitted to a 1:1 binding model with hill slope using an in-house script. All provided concentrations are final concentrations.
On the technique in general: Bead proximity is the source of the signal in Alpha formats.

Starred links: 1 amine or outer side, 2 acyl side, 3 side chain; linkers in the order of their positions; H or OH if unused. Positions of bridges follow the written chain, without caps; N, C: chain ends. Non-standard residues stand in square brackets, D forms with d. Primed or numbered codes have the meaning given here. RdN(3) = (R)-4-(((allyloxy)carbonyl)(methyl)amino)-2-amino-2-methylbutanoic acid, stapling residue, C=CCOC(=O)N(C)CC[C@@](C)(N[*:1])C(=O)[*:2]; RdN″ = (R)-4-(((allyloxy)carbonyl)(methyl)amino)-2-amino-2-methylbutanoic acid (stapling residue), C=CCOC(=O)N(C)CC[C@@](C)(N[*:1])C(=O)[*:2]; PyrS(3) = (S)-1-((allyloxy)carbonyl)-3-aminopyrrolidine-3-carboxylic acid, stapling residue, C=CCOC(=O)N1CC[C@@](N[*:1])(C(=O)[*:2])C1; PyrS″ = (S)-1-((allyloxy)carbonyl)-3-aminopyrrolidine-3-carboxylic acid (stapling residue), C=CCOC(=O)N1CC[C@@](N[*:1])(C(=O)[*:2])C1; PyrS = (S)-1-((allyloxy)carbonyl)-3-aminopyrrolidine-3-carboxylic acid, C=CCOC(=O)N1CC[C@@](N[*:1])(C(=O)[*:2])C1; Phe(3,4-F2) = N[C@@H](Cc1ccc(F)c(F)c1)C(=O)O; S7 = C[C@@](CCCCCC=[*:3])(N[*:1])C(=O)[*:2]; Phe(3-F) = N[C@@H](Cc1cccc(F)c1)C(=O)O; 2Pal = N[C@@H](Cc1ccccn1)C(=O)O; 3Pal = N[C@@H](Cc1cccnc1)C(=O)O; R8 = C=CCCCCCC[C@@](C)(N)C(=O)O; Cha = N[C@@H](CC1CCCCC1)C(=O)O; hLeu = CC(C)CC[C@H](N)C(=O)O; Nle = CCCC[C@H](N)C(=O)O

B1: I-82 (peptide)
peptide: Ac-FDA[R8]DDAAFV[PyrS″][3Pal]WQ-NH2
modifications: staple 4-11
notes: Stapled peptide; also called Ac-Phe-Asp-Ala-R8-Asp-Asp-Ala-Ala-Phe-Val-PyrS-3PyrA-Trp-Gln-NH2
B1: the EC50 was ≥ 10 µM.

B2: I-87 (peptide)
peptide: Ac-FDA[R8]DDAA[3Pal]V[PyrS″]FWQ-NH2
modifications: staple 4-11; not fully specified; printed as Ac-Phe-Asp-Ala-R8-Asp-Asp-Ala-Ala-3PyrA-Val-PyrS-Phe-Trp-Gln-NH2
notes: Stapled peptide; also called Ac-Phe-Asp-Ala-R8-Asp-Asp-Ala-Ala-3PyrA-Val-PyrS-Phe-Trp-Gln-NH2
On to B2, for which the EC50 is ≥ 10 µM.

B3: I-80 (peptide)
peptide: Ac-FDA[R8]DDAAFV[PyrS][2Pal]WQ-NH2
modifications: staple 4-11
notes: Stapled peptide; also called Ac-Phe-Asp-Ala-R8-Asp-Asp-Ala-Ala-Phe-Val-PyrS-2PyrA-Trp-Gln-NH2
On to B3, for which the EC50 is ≥ 10 µM.

B4: I-69 (peptide)
peptide: Ac-ADI[RdN″]D[Nle]AAFQ[S7]FWH-NH2
modifications: staple 4-11
notes: Stapled peptide; also called Ac-Ala-Asp-Ile-RdN-Asp-nLeu-Ala-Ala-Phe-Gln-S7-Phe-Trp-His-NH2
In the case of B4, a half-maximal effect (EC50) was put at 9.1 µM.

B5: I-50 (peptide)
peptide: Ac-FD[RdN(3)]ADDAAF[S7]AFWQ-NH2
modifications: staple 3-10; also: later-eluting HPLC isomer, E/Z not assigned
notes: Stapled peptide; also called Ac-Phe-Asp-RdN-Ala-Asp-Asp-Ala-Ala-Phe-S7-Ala-Phe-Trp-Gln-NH2
With B5, the concentration for a half-maximal effect (EC50) is ≥ 10 µM.

B6: I-68 (peptide)
peptide: Ac-ADI[RdN″]D[Nle]AAFQ[S7]FWH-NH2
modifications: staple 4-11
notes: as for B4
Take B6: the midpoint of the response, the EC50, lay at 8.12 µM. This counts as single-digit micromolar.

B7: I-60 (peptide)
peptide: Ac-FDA[R8]DDAAFV[PyrS][Cha]WQ-NH2
modifications: staple 4-11
notes: Stapled peptide; also called Ac-Phe-Asp-Ala-R8-Asp-Asp-Ala-Ala-Phe-Val-PyrS-Cha-Trp-Gln-NH2
On to B7, for which the concentration giving a half-maximal response (EC50) is ≥ 10 µM.

B8: I-51 (peptide)
peptide: Ac-FD[R8]ADDAAF[PyrS(3)]AFWQ-NH2
modifications: staple 3-10
notes: Stapled peptide; also called Ac-Phe-Asp-R8-Ala-Asp-Asp-Ala-Ala-Phe-PyrS-Ala-Phe-Trp-Gln-NH2
For the molecule B8, the concentration for a half-maximal effect (EC50) was ≥ 10 µM.

B9: I-86 (peptide)
peptide: Ac-FDA[R8]DDAA[2Pal]V[PyrS]FWQ-NH2
modifications: staple 4-11
notes: Stapled peptide; also called Ac-Phe-Asp-Ala-R8-Asp-Asp-Ala-Ala-2PyrA-Val-PyrS-Phe-Trp-Gln-NH2
Turning to B9, the EC50 was ≥ 10 µM.

B10: I-79 (peptide)
peptide: Ac-FDA[R8]DDAA[Phe(3,4-F2)]V[PyrS]FWQ-NH2
modifications: staple 4-11
notes: Stapled peptide; also called Ac-Phe-Asp-Ala-R8-Asp-Asp-Ala-Ala-34FF-Val-PyrS-Phe-Trp-Gln-NH2
On to B10, for which the EC50 was found to be 3.97 µM. In other words, the single-digit micromolar range.

B11: I-77 (peptide)
peptide: Ac-FDA[R8]DDAA[Phe(3-F)]V[PyrS]FWQ-NH2
modifications: staple 4-11
notes: Stapled peptide; also called Ac-Phe-Asp-Ala-R8-Asp-Asp-Ala-Ala-3FF-Val-PyrS-Phe-Trp-Gln-NH2
As for B11, the EC50 is ≥ 10 µM.

B12: I-88 (peptide)
peptide: Ac-FDA[R8]DDAA[3Pal]V[PyrS″]FWQ-NH2
modifications: staple 4-11; not fully specified; printed as Ac-Phe-Asp-Ala-R8-Asp-Asp-Ala-Ala-3PyrA-Val-PyrS-Phe-Trp-Gln-NH2
notes: as for B2
For B12, the EC50 was ≥ 10 µM.

B13: I-71 (peptide)
peptide: Ac-ADI[RdN″]D[hLeu]AAFQ[S7]FWH-NH2
modifications: staple 4-11
notes: Stapled peptide; also called Ac-Ala-Asp-Ile-RdN-Asp-hLeu-Ala-Ala-Phe-Gln-S7-Phe-Trp-His-NH2
B13: the EC50 was ≥ 10 µM.

B14: I-76 (peptide)
peptide: Ac-FDA[R8]DDAA[Nle]V[PyrS(3)]FWQ-NH2
modifications: staple 4-11
notes: Stapled peptide; also called Ac-Phe-Asp-Ala-R8-Asp-Asp-Ala-Ala-nLeu-Val-PyrS-Phe-Trp-Gln-NH2
As for B14, the EC50 is ≥ 10 µM.

B15: I-75 (peptide)
peptide: Ac-FDA[R8]DDAA[Cha]V[PyrS″]FWQ-NH2
modifications: staple 4-11; not fully specified; printed as Ac-Phe-Asp-Ala-R8-Asp-Asp-Ala-Ala-Cha-Val-PyrS-Phe-Trp-Gln-NH2
notes: Stapled peptide; also called Ac-Phe-Asp-Ala-R8-Asp-Asp-Ala-Ala-Cha-Val-PyrS-Phe-Trp-Gln-NH2
For the molecule B15, the EC50 was ≥ 10 µM.

B16: I-61 (peptide)
peptide: Ac-FDA[R8]DDAAFV[PyrS][Cha]WQ-NH2
modifications: staple 4-11
notes: as for B7
Turning to B16, a half-maximal effect (EC50) was put at 8.9 µM.
